Source: patent US20070141060A1, “Hmgb1 protein inhibitors for the regulation of smooth muscle cells and endothelial cells profileration” (BIO3 RESEARCH SRL, priority 2004, published 2007)

Columns and labels:
Assay type in all cases: cell-based
3T3 mouse fibroblasts = test: Proliferation of 3T3 mouse fibroblasts in similar conditions; conditions: data not shown
[1] = system: Bovine aorta endothelial cells; test: Proliferation of bovine aorta endothelial cells (cell counting); conditions: DMEM + different concentrations of HMGB1, no FCS; cells counted at 24 hours intervals; FIG. 1
Procedure: (§1) Bovine aorta endothelial cells or bovine smooth muscle at an early passage were cultured in DMEM+10% FCS. Cells were then kept for 16 hours in DMEM in absence of FCS, and plated in 6 cm wells of 6-well plates (about 50 000 cells per well). Cells were then cultured, in triplicate, in the presence of DMEM alone, DMEM+10% FCS, or DMEM+different concentrations of HMGB1. At 24 hours intervals cells were counted under the microscope.

bovine smooth muscle = test: Proliferation of bovine smooth muscle cells (cell counting)
Procedure: as §1

B1: HMGB1: HMGB1 protein, released after mechanical injury of cells; induces smooth muscle cell and endothelial cell proliferation (protein, UniProt P09429 1-215, looked up)
High mobility group protein B1: MGKGDPKKPRGKMSSYAFFVQTCREEHKKKHPDASVNFSEFSKKCSERWKTMSAKEKGKFEDMAKADKARYEREMKTYIPPKGETKKKFKDPNAPKRPPSAFFLFCSEYRPKIKGEHPGLSIGDVAKKLGEMWNNTAADDKQPYEKKAAKLKEKYEKDIAAYRAKGKPDAAKKGVVKAEKSKKKKEEEEDEEDEEDEEEEEDEEDEDEEEDDDDE
proliferation of 3T3 mouse fibroblasts (3T3 mouse fibroblasts): does not cause the proliferation
cell division / proliferation of BAEC [1]: keep dividing
cell division / proliferation of BSMC (bovine smooth muscle; DMEM + different concentrations of HMGB1, no FCS, single addition, cells counted at 24 hours intervals, FIG. 1): a couple of rounds of division in BSMC, followed by quiescence
cell proliferation of BSMC on repeated addition (bovine smooth muscle; repeated addition of HMGB1 every 24 hours, data not shown): keep proliferating
